Measured values reported in the supplement of paper PMC7125110.
± gives the standard error. Variants at the floor of the assay were thinned out.

B1: glmS ribozyme (parent)
chain: AUAAAAGCGCCAGAACUACAGAAAUGUAGUUGACGAGGAGGAGGUUUAUCGAAUUUUCGGCGGAUGCCUCCAAA

Variants of: B1
Assay: self-cleavage kobs at 640 uM GlcN6P; higher = faster cleavage; RNA array
Settings: with glucosamine-6-phosphate
Method in brief: (§1)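 Over ~14 h at 37 °C, tiles were imaged as glucosamine-6-phosphate (40 μM to 10 mM) in HEPES/KCl/Mg(OAc)2 buffer flowed across sequenced MiSeq chips. The chips carried barcoded ribozyme variants transcribed in situ by E. coli RNA polymerase and tracked with a hybridised Cy3 probe. After normalisation to baseline and to non-cleaving reference variants, one- or two-exponential decay fits of per-tile medians gave kobs. kcat and KM followed from weighted Michaelis–Menten fits across concentrations.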

AUAAAAGCGCCGGUUCUACAGAAAUGUAGUUGACGAGGAGGAGGUUUAUCGAAUUUUCGGCGGAUGCCUCAAAA [A12G A14U A15U C71A] and AUAAAAGCGCGAGAACUACAGAAAUGUAGUUGACGAGGAGGAGGUUUAACGAAUUUUCGGCGGAUGCCUCGAAA [C11G U49A C71G] are within error of each other in “self-cleavage kobs at 640 uM GlcN6P” value: 6.44e-05 ± 1.9e-05 s⁻¹ for the first, 8.96e-05 ± 3.1e-05 s⁻¹ for the second.

Going from AUAAAAGCGCCAGAACUACAGAAAUGUAGUUGACGAGGAGGAGGUUUAUCGAAUUUUGGGCGGAUGCUUCGAAA [C58G C68U C71G] to AUAAAAGCGCCAGGACUACAGAAAUGUAUUUGACGAGGUGGAGGUUUAUCGAAUUUUCGGCGGAUGCCUCCAAA [A14G G29U A39U], the “self-cleavage kobs at 640 uM GlcN6P” value rises from 5.51e-05 ± 2.4e-05 s⁻¹ to 0.00293 ± 0.0011 s⁻¹ (53-fold).

AUAAAAGCGCCAGAACUACAGAAAUGUAGUUGACGAGGAGGAGGUUUAUCGAAUUUUCGUCGGAUACCUCCAAA [G60U G66A] and AUAAAGGCGCCAGAACUACAGAAAUGUAGUUGACGAGGAGGAUGUUUAUCGAAUUUUCGGCGGAUGCCGCCAAA [A6G G43U U69G] cannot be ordered by “self-cleavage kobs at 640 uM GlcN6P” value: under 1e-05 s⁻¹ for the first, under 1e-05 s⁻¹ for the second.

AUAAAAGCGUGAGAACUACAGAAAUGUAUGUGACGACGAGGAGGUUUAUCGAAUUUUCGGCGGAUGCCUCCAAA [C10U C11G G29U U30G G37C] and AUAAAAGCGCCAGAACUACAGAAAUGUAGUUGACGAGGAGGAGGUUGAUCGAAUUUUCGGCUGAUGCCUCCAAA [U47G G62U] cannot be ordered by “self-cleavage kobs at 640 uM GlcN6P” value: under 1e-05 s⁻¹ for the first, under 1e-05 s⁻¹ for the second.

Compared with AUAAAAGCGCCAGAACUACAGAAAUGUAGUUGACGAGAAGGAGAUUUAUCUAAGUUUCGGCGGAUGCCUCCAAA [G38A G44A G51U U54G], AUAAAAGCGCCAGGAAUACAGAAAUGUAGUUGACGAGGAGGAGGUUUAUCGAAUUAUCGGCGGAUGCCUCCAAA [A14G C16A U56A] is higher in “self-cleavage kobs at 640 uM GlcN6P” value: under 1e-05 s⁻¹ for the first, 0.00547 ± 0.0015 s⁻¹ for the second.

First: AUAAAAGCGCCAGUACUACAGAAAUGUACUUGACGAGGAGGAGGUUUAUCGAAUUUUCGGCGGGUGCCUCCAAA [A14U G29C A64G]
Second: AUAAAAGCGCCUGAGCUACAGAAAUGUAGUUGACGAGGAGGAGGUUUAUCGAAUUUUCGGCGGAUGACUCCAAA [A12U A15G C67A]
The “self-cleavage kobs at 640 uM GlcN6P” value of the first is lower: under 1e-05 s⁻¹ for the first, 0.00125 ± 0.00035 s⁻¹ for the second.

AUAAAAGCGCCAGAACUACAGAAAUGUACUUGACCAGUAGGAGGUUUAUCUAAUUUUCAGCGGAUGCCUCCAAA [G29C G35C G38U G51U G59A] and AUAAAAGCGCAAGAACUACAGAAAUGUAGUUGGCGAGGAGGAGGUUUAUCAAAUUUUCGGCGGAUGCCUCUAAA [C11A A33G G51A C71U] cannot be ordered by “self-cleavage kobs at 640 uM GlcN6P” value: under 1e-05 s⁻¹ for the first, under 1e-05 s⁻¹ for the second.

First: AUAAAAGCGCCAGAACUACAGAAAUGUAGUUGACGCGGAGGAGGUUUAUCGAAUUUUCGGCGGAUGCCACCAAA [A36C U69A]
Second: AUAAAAGCGCCAGAACUACAGAAAUGUAGUUGACGAGGAGGAGGUUUAUCGAAUGUUCAGCGGAUGCCUACAAA [U55G G59A C70A]
The “self-cleavage kobs at 640 uM GlcN6P” value of the first is higher: 6.08e-05 ± 1.6e-05 s⁻¹ for the first, under 1e-05 s⁻¹ for the second.

AUAAACGCGCCAGAACUACAGAAAUGUACUUGACGUGGAGGAUGUUUAUCGAAUUUUCGGCGGAUACCUCCAAA [A6C G29C A36U G43U G66A] and AUAAAAGCGCCCGAACUACAGAAAUGUAGUUGACGAGGAGGAGGUUUAUCGAAUUUUCGCCGGAUGUCUCCAAA [A12C G60C C67U] cannot be ordered by “self-cleavage kobs at 640 uM GlcN6P” value: under 1e-05 s⁻¹ for the first, under 1e-05 s⁻¹ for the second.

First: AUAAAAACGCCAGAACUACAGAAAUGUAGUUAACGAGGAGGAGGUUUAGCGAAUUUUCGGCGGAUGCCUCCAAA [G7A G32A U49G]
Second: AUAAAAGCGCCAGAACUACAGAAAUGUAAUUAACGAGGAGGAGGUUUAUCGAAUUUUCGGCGGAUACCUCCAAA [G29A G32A G66A]
The “self-cleavage kobs at 640 uM GlcN6P” value of the first is lower: under 1e-05 s⁻¹ for the first, 0.000119 ± 2.8e-05 s⁻¹ for the second.

Compared with AUAAAAGCGCCAGAACUACAGAAAUGUAGUUGACUAGGAGGAGGUUUAUCGAAUUUUCGGCGUAAGCCUCCAAA [G35U G63U U65A], AUAAAAGCGCCAGAACUACAGAAAUGUAGUUGACGAGGAGGAGGUUUAUCGAAUGUUCGGCGGAUACCUGCAAA [U55G G66A C70G] is higher in “self-cleavage kobs at 640 uM GlcN6P” value: under 1e-05 s⁻¹ for the first, 0.000126 ± 2.1e-05 s⁻¹ for the second.

AUAAAAGCGGCAGAACUACAGAAAUGUAGUUGACGAGAAGGAGGUUCAUCGCAUUUUCGGCGGAUGCCUCCAAA [C10G G38A U47C A52C] and AUAAAAGCGCCAGAACUACAGAAAUGUAGUUGACGAGGAGGAGGUUUAUCUAAUUUUCGGCGGAUACCUCCAAA [G51U G66A] cannot be ordered by “self-cleavage kobs at 640 uM GlcN6P” value: under 1e-05 s⁻¹ for the first, under 1e-05 s⁻¹ for the second.

AUAAAAGCGCCAGUACUACAGAAAUGUAGUUGACAAGGAGGAGGUUUAUCGAAUUUUCGGCGUAUGCCUCCAAA [A14U G35A G63U] and AUAAAACCGCCAGAACUACAGAAAUGUAGUUGACGAGGAGGAGGUUUAUCGAAUUUUCGGCGGUUUCCUCCAAA [G7C A64U G66U] cannot be ordered by “self-cleavage kobs at 640 uM GlcN6P” value: under 1e-05 s⁻¹ for the first, under 1e-05 s⁻¹ for the second.

For AUAAAAGCGCGAGAAAUACAGAAAUGUAGUUGACGAGGAGGAUGUUUAUCGAAUUUUCGGCGGAUGCCUCCAAA [C11G C16A G43U], the “self-cleavage kobs at 640 uM GlcN6P” value was under 1e-05 s⁻¹.

Variants of: B1
Assay: self-cleavage kobs at 2500 uM GlcN6P; higher = faster cleavage; RNA array
Settings: with glucosamine-6-phosphate
Method in brief: as §1

Going from AUAAAAGCGCCGGUUCUACAGAAAUGUAGUUGACGAGGAGGAGGUUUAUCGAAUUUUCGGCGGAUGCCUCAAAA [A12G A14U A15U C71A] to AUAAAAGCGCCAGAACUACAGAAAUGUAGUUGACGAGGAGGAGGUUUAUCGAAUUUUCGUCGGAUACCUCCAAA [G60U G66A], the “self-cleavage kobs at 2500 uM GlcN6P” value falls from 7.44e-05 ± 1.8e-05 s⁻¹ to under 1e-05 s⁻¹.

AUAAAAGCGCCAGGAAUACAGAAAUGUAGUUGACGAGGAGGAGGUUUAUCGAAUUAUCGGCGGAUGCCUCCAAA [A14G C16A U56A] and AUAAAAGCGCCUGAGCUACAGAAAUGUAGUUGACGAGGAGGAGGUUUAUCGAAUUUUCGGCGGAUGACUCCAAA [A12U A15G C67A] are within error of each other in “self-cleavage kobs at 2500 uM GlcN6P” value: 0.00293 ± 0.0013 s⁻¹ for the first, 0.00634 ± 0.0023 s⁻¹ for the second.

Going from AUAAAAGCGCCAGAACUACAGAAAUGUACUUGACCAGUAGGAGGUUUAUCUAAUUUUCAGCGGAUGCCUCCAAA [G29C G35C G38U G51U G59A] to AUAAAAGCGCCAGAACUACAGAAAUGUAGUUGACGCGGAGGAGGUUUAUCGAAUUUUCGGCGGAUGCCACCAAA [A36C U69A], the “self-cleavage kobs at 2500 uM GlcN6P” value rises from under 1e-05 s⁻¹ to 0.000182 ± 4.6e-05 s⁻¹.

First: AUAAAAGCGCCAGAACUACAGAAAUGUAGUUGACGAGGAGGAGGUUUAUCGAAUGUUCAGCGGAUGCCUACAAA [U55G G59A C70A]
Second: AUAAAAGCGCCAGAACUACAGAAAUGUAAUUAACGAGGAGGAGGUUUAUCGAAUUUUCGGCGGAUACCUCCAAA [G29A G32A G66A]
The “self-cleavage kobs at 2500 uM GlcN6P” value of the first is lower: under 1e-05 s⁻¹ for the first, 0.000338 ± 8.3e-05 s⁻¹ for the second.

Compared with AUAAAAGCGCCAGAACUACAGAAAUGUAGUUGACUAGGAGGAGGUUUAUCGAAUUUUCGGCGUAAGCCUCCAAA [G35U G63U U65A], AUAAAAGCGCCAGAACUACAGAAAUGUAGUUGACGAGGAGGAGGUUUAUCGAAUGUUCGGCGGAUACCUGCAAA [U55G G66A C70G] is higher in “self-cleavage kobs at 2500 uM GlcN6P” value: under 1e-05 s⁻¹ for the first, 0.000206 ± 4.7e-05 s⁻¹ for the second.

AUAAAAGCGCCAGAACUACAGAAAUGUAGUUGACGAGGAGGAGGUUUAUCUAAUUUUCGGCGGAUACCUCCAAA [G51U G66A] was tested, and the “self-cleavage kobs at 2500 uM GlcN6P” value was under 1e-05 s⁻¹.
